Experimental data: paper PMC5714250

T1: APUM23Delete (Arabidopsis thaliana, UniProt Q9C552 85-655, del235-270)
T1 sequence: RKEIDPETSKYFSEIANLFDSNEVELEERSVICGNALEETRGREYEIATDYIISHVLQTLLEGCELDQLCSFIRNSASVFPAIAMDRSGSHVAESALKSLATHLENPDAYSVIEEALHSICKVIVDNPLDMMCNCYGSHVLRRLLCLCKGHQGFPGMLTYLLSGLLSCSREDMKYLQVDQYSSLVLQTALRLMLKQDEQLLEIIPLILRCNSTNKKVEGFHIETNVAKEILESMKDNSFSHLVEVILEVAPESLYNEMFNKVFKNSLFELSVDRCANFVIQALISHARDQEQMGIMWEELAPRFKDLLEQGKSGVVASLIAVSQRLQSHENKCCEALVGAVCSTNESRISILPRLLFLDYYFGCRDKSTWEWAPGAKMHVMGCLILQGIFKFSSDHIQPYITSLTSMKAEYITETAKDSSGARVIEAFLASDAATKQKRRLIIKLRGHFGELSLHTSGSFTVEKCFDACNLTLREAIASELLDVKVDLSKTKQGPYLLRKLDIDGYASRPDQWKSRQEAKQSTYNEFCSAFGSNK

T2: APUM23 85-655 (WT) (Arabidopsis thaliana, UniProt Q9C552 85-655)
T2 sequence: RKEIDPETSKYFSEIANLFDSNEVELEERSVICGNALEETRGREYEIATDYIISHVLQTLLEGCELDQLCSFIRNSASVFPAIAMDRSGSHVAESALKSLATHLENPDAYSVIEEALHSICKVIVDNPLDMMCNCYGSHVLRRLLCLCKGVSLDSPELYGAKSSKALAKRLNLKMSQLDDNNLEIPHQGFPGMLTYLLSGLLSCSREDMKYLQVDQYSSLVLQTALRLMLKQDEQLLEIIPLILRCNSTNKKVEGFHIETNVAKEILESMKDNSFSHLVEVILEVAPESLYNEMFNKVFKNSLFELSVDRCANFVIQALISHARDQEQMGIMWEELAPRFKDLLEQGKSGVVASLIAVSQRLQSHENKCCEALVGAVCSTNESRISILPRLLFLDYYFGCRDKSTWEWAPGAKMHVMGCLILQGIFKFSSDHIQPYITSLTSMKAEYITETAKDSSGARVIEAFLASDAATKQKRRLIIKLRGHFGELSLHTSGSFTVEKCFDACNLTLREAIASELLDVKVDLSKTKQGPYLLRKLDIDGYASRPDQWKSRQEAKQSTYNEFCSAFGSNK

B1: 11-mer WT RNA (18S rRNA 1141-1151) (ssRNA)
RNA: GGAAUUGACGG
B2: 11-mer A+3G RNA (ssRNA)
RNA: GGAGUUGACGG

Assays:
[1] = molecular target: T1, APUM23Delete; test: X-ray crystallography
[2] = molecular target: T2, APUM23 85-655 (WT); test: X-ray crystallography

Row | Binder | binding result [1] | binding result [2]
1 | B1 | binds | 
2 | B2 |  | binds
